# Measured values published in US20170342349A1, “STABILIZED ENZYME COMPOSITIONS” (NOVOZYMES A/S, priority 2014, published 2017).
# Columns and labels:
# [1] = molecular target: Protease P (SEQ ID NO 5) variant G127S + G128P + G129S + Y130P + D131S + M134L; assay: Ki fitted from Suc-AAPF-pNA activity in Model B detergent; IF relative to SEQ ID NO 5
# [2] = molecular target: Protease P (SEQ ID NO 5) variant M103A; assay: as above
# [3] = molecular target: Protease P (SEQ ID NO 5) variant Q64F; assay: as above
# [4] = molecular target: Protease P (SEQ ID NO 5) variant M103S; assay: as above
# [5] = molecular target: Protease P (SEQ ID NO 5) variant Q64N; assay: as above
# [6] = molecular target: TY145 (SEQ ID NO 3) variant S173P + S175P + F180Y; assay: Ki fitted from Suc-AAPF-pNA activity in Model B detergent; IF relative to SEQ ID NO 3 comprising S173P + S175P + F180Y (the reference itself)
# Sequence of TY145 (SEQ ID NO 3) variant S173P + S175P + F180Y (chain, as listed by the source S173P S175P F180Y S173P S175P F180Y limits assumed): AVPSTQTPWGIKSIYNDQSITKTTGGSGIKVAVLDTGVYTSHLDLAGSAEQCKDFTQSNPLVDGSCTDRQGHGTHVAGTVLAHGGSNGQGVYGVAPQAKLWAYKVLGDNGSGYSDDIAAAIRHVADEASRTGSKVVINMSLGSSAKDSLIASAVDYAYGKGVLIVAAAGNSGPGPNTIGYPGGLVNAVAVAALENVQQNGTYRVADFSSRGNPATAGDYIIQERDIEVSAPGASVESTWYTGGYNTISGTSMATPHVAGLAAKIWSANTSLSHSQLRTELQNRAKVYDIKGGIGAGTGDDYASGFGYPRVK
# [7] = molecular target: TY145 (SEQ ID NO 3) variant S114V + S173P + S175P; assay: Ki fitted from Suc-AAPF-pNA activity in Model B detergent; IF relative to SEQ ID NO 3 comprising S173P + S175P
# Sequence of TY145 (SEQ ID NO 3) variant S114V + S173P + S175P (chain, as listed by the source S114V S173P S175P S114V S173P S175P limits assumed): as the sequence (chain, as listed by the source S173P S175P F180Y S173P S175P F180Y limits assumed) above, with S114V, Y180F counted along it
# [8] = molecular target: TY145 (SEQ ID NO 3) variant Q70N + S173P + S175P; assay: as above
# Sequence of TY145 (SEQ ID NO 3) variant Q70N + S173P + S175P (chain, as listed by the source Q70N S173P S175P Q70N S173P S175P limits assumed): as the sequence (chain, as listed by the source S173P S175P F180Y S173P S175P F180Y limits assumed) above, with Q70N, Y180F counted along it
# [9] = molecular target: TY145 (SEQ ID NO 3) variant I150L + S173P + S175P; assay: as above
# Sequence of TY145 (SEQ ID NO 3) variant I150L + S173P + S175P (chain, as listed by the source I150L S173P S175P I150L S173P S175P limits assumed): as the sequence (chain, as listed by the source S173P S175P F180Y S173P S175P F180Y limits assumed) above, with I150L, Y180F counted along it
# [10] = molecular target: TY145 (SEQ ID NO 3) variant S114V + I150L + S173P + S175P; assay: as above
# Sequence of TY145 (SEQ ID NO 3) variant S114V + I150L + S173P + S175P (chain, as listed by the source S114V I150L S173P S175P S114V I150L S173P S175P limits assumed): as the sequence (chain, as listed by the source S173P S175P F180Y S173P S175P F180Y limits assumed) above, with S114V, I150L, Y180F counted along it
# [11] = molecular target: TY145 (SEQ ID NO 3) variant S173P + S175P + I178F + F180Y; assay: Ki fitted from Suc-AAPF-pNA activity in Model B detergent; IF relative to SEQ ID NO 3 comprising S173P + S175P + F180Y (second printed row for this variant)
# Sequence of TY145 (SEQ ID NO 3) (chain, as listed by the source limits assumed): as the sequence (chain, as listed by the source S173P S175P F180Y S173P S175P F180Y limits assumed) above, with P173S, P175S, Y180F counted along it
# [12] = molecular target: TY145 (SEQ ID NO 3) variant S173P + S175P + F180Y + G182A; assay: as above
# [13] = molecular target: TY145 (SEQ ID NO 3) variant S173P + S175P + F180Y + L184F; assay: as above
# [14] = molecular target: Protease C (SEQ ID NO 6) variant N60H + S100I (Lederbergia lenta (Bacillus lentus)) (UniProt P29600); assay: Ki fitted from Suc-AAPF-pNA activity in Model B detergent; IF relative to SEQ ID NO 6
# [15] = molecular target: Protease C (SEQ ID NO 6) variant N60H (Lederbergia lenta (Bacillus lentus)) (UniProt P29600); assay: as above
# [16] = molecular target: Protease C (SEQ ID NO 6) variant L134V (Lederbergia lenta (Bacillus lentus)) (UniProt P29600); assay: as above
# [17] = molecular target: Protease C (SEQ ID NO 6) variant V103A (Lederbergia lenta (Bacillus lentus)) (UniProt P29600); assay: as above
# [18] = molecular target: Protease C (SEQ ID NO 6) variant N60F (Lederbergia lenta (Bacillus lentus)) (UniProt P29600); assay: as above
# [19] = molecular target: Protease C (SEQ ID NO 6) variant S100I + L134V (Lederbergia lenta (Bacillus lentus)) (UniProt P29600); assay: as above
# [20] = molecular target: Protease C (SEQ ID NO 6) variant N60F + S100I (Lederbergia lenta (Bacillus lentus)) (UniProt P29600); assay: as above
# [21] = molecular target: Protease C (SEQ ID NO 6) variant S100I (Lederbergia lenta (Bacillus lentus)) (UniProt P29600); assay: as above
# [22] = molecular target: Protease C (SEQ ID NO 6) variant N60A (Lederbergia lenta (Bacillus lentus)) (UniProt P29600); assay: as above
# [23] = molecular target: Protease C (SEQ ID NO 6) variant S100I + Y166F (Lederbergia lenta (Bacillus lentus)) (UniProt P29600); assay: as above
# [24] = molecular target: Protease C (SEQ ID NO 6) variant Y166F (Lederbergia lenta (Bacillus lentus)) (UniProt P29600); assay: as above
# TY145 (SEQ ID NO 3) = assay: Ki fitted from Suc-AAPF-pNA activity at 8 inhibitor concentrations in Model B detergent; IF relative to SEQ ID NO 3 (the reference itself)
substance,measurement,setting,value
Inhibitor 1: Cbz-Gly-Ala-NHCH(CH2C6H4pOH)C(OH)(SO3Na)-H (peptide),"IF (binding constant improvement factor, relative Ki)",[1],1.05
same,"IF (binding constant improvement factor, relative Ki)",[2],2.31
same,"IF (binding constant improvement factor, relative Ki)",[3],3.44
same,"IF (binding constant improvement factor, relative Ki)",[4],1.73
same,"IF (binding constant improvement factor, relative Ki)",[5],1.38
same,"IF (binding constant improvement factor, relative Ki)",[6],1
same,"IF (binding constant improvement factor, relative Ki)",[7],1.83
same,"IF (binding constant improvement factor, relative Ki)",[8],4.48
same,"IF (binding constant improvement factor, relative Ki)",[9],2.05
same,"IF (binding constant improvement factor, relative Ki)",[10],6.14
same,"IF (binding constant improvement factor, relative Ki)",[11],1.83
same,"IF (binding constant improvement factor, relative Ki)",[12],2.01
same,"IF (binding constant improvement factor, relative Ki)",[13],3.02
same,"IF (binding constant improvement factor, relative Ki)",[14],6.65
same,"IF (binding constant improvement factor, relative Ki)",[15],1.24
same,"IF (binding constant improvement factor, relative Ki)",[16],2.89
same,"IF (binding constant improvement factor, relative Ki)",[17],1.49
same,"IF (binding constant improvement factor, relative Ki)",[18],3.25
same,"IF (binding constant improvement factor, relative Ki)",[19],15.1
same,"IF (binding constant improvement factor, relative Ki)",[20],11.3
same,"IF (binding constant improvement factor, relative Ki)",[21],6.46
same,"IF (binding constant improvement factor, relative Ki)",[22],1.22
same,"IF (binding constant improvement factor, relative Ki)",[23],11.3
same,"IF (binding constant improvement factor, relative Ki)",[24],1.31
same,"IF (binding constant improvement factor, relative Ki)",TY145 (SEQ ID NO 3),1
